Test results as given in IntAct's records for PubMed 29178645.

B1: Protein SHQ1 homolog (Homo sapiens), Q6PI26 (parent)
chain: MLTPAFDLSQDPDFLTIAIRVPYARVSEFDVYFEGSDFKFYAKPYFLRLTLPGRIVENGSEQGSYDADKGIFTIRLPKETPGQHFEGLNMLTALLAPRKSRTAKPLVEEIGASEIPEEVVDDEEFDWEIEQTPCEEVSESALNPQCHYGFGNLRSGVLQRLQDELSDVIDIKDPDFTPAAERRQKRLAAELAKFDPDHYLADFFEDEAIEQILKYNPWWTDKYSKMMAFLEKSQEQENHATLVSFSEEEKYQLRKFVNKSYLLDKRACRQVCYSLIDILLAYCYETRVTEGEKNVESAWNIRKLSPTLCWFETWTNVHDIMVSFGRRVLCYPLYRHFKLVMKAYRDTIKILQLGKSAVLKCLLDIHKIFQENDPAYILNDLYISDYCVWIQKVKSKKLAALAEALKEVSLTKAQLGLELEELEAAALLVQEEETALKAAHSVSGQQTLCSSSEASDSEDSDSSVSSGNEDSGSDSEQDELKDSPSETVSSLQGPFLEESSAFLIVDGGVRRNTAIQESDASQGKPLASSWPLGVSGPLIEELGEQLKTTVQVSEPKGTTAVNRSNIQERDGCQTPNN
partner: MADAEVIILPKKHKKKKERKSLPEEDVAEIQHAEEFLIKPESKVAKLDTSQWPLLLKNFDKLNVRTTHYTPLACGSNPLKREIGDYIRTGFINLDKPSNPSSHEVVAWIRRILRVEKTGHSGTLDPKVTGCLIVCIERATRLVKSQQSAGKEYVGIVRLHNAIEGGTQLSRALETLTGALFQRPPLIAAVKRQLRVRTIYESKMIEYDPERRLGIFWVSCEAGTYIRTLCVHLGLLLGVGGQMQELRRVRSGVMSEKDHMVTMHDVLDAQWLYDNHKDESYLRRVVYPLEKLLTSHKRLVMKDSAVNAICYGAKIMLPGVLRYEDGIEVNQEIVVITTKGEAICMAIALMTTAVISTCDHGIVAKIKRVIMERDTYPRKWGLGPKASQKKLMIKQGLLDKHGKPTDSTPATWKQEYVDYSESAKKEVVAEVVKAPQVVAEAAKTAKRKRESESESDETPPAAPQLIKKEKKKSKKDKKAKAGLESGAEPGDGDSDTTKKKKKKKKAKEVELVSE

Variants of: B1
Conditions: with dkc1_human DKC1, O60832

Row | effect of a mutation on the interaction | Variant
1 | decreasing interaction strength | R335C
2 | decreasing interaction strength | A426V
3 | decreasing interaction strength | R335C;A426V
